Measured values published in patent publication US20200121803A1 (published 2020).
Residue numbers refer to the chain shown, from its start.

T1: human CD98, endogenously expressed on Molt-4 human acute lymphoblastic leukemia cells (human)
T1 chain: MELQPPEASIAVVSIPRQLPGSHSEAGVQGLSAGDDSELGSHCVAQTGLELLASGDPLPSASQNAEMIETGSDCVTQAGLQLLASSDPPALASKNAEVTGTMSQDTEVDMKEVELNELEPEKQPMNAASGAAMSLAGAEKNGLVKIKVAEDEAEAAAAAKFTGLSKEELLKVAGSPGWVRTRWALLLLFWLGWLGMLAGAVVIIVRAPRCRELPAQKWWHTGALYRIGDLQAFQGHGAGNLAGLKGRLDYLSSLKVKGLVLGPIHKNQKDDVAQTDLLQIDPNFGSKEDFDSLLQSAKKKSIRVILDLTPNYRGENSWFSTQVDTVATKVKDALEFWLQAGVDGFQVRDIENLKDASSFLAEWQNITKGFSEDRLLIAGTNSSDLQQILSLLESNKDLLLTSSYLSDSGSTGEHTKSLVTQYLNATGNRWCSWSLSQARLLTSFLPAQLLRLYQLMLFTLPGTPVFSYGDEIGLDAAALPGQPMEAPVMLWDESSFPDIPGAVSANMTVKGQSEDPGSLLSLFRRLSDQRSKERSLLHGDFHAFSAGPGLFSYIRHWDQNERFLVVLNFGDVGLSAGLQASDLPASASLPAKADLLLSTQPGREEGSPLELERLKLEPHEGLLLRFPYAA

B1: CD98 (CL-huAb110)-CZ (antibody, human IgG1, kappa, L234A L235A, V domains shown)
VH: EVQLVQSGAEVKKPGASVKVSCKASGFTFSDYTMAWVRQAPGQGLEWVATIIYDARGTYYRDAVKGRFTITRDNSTSTLYLELSSLRSEDTAVYYCARQSDDTYYYWGYFDYWGQGTMVTVSS
VL: DIVMTQTPLSLPVTPGEPASINCKSSQSLLFSGNQKNYLAWYLQKPGQSPQLLIYWASTRQSGVPDRFSGSGSGTDFTLKISRVEAEDVGIYYCQQYYSSPYTFGQGTKLEIKR
modifications: synthon CZ on reduced interchain cysteines (sites not given)
B2: CD98 (CL-huAb104)-ZT (antibody, human IgG1, kappa, L234A L235A, V domains shown)
VH: EVQLVESGGGLVQPGGSLRLSCATSGFTFIDYYMSWVRQAPGKGLEWLGFIRNKAYGYTTEYSASVKGRFTISRDNSKSILYLQMNSLKTEDTAVYYCTRDRPAWFVYWGQGTLVTVSS
VL: B1 VL with N22S, F31Y, G33S, Q61E, I91V, S100Y, Q106G, L110V
modifications: synthon ZT on reduced interchain cysteines (sites not given)
B3: CD98 (CL-huAb110)-AAD (antibody, human IgG1, kappa, L234A L235A, V domains shown)
VH: B1 VH
VL: B1 VL
modifications: synthon AAD on reduced interchain cysteines (sites not given)
B4: CD98 (CL-huAb102)-TV (antibody, human IgG1, kappa, L234A L235A, V domains shown)
VH: B2 VH with Y56N, G57R
VL: B1 VL with N22S, F31Y, G33S, Q61E, I91V, S100Y, Q106G, L110V
modifications: synthon TV on reduced interchain cysteines (sites not given)
B5: CD98 (CL-huAb108)-AAD (antibody, human IgG1, kappa, L234A L235A, V domains shown)
VH: B1 VH with D54S, A55G
VL: B1 VL with S99D, S100V
modifications: synthon AAD on reduced interchain cysteines (sites not given)
B6: CD98 (CL-huAb108)-TX (antibody, human IgG1, kappa, L234A L235A, V domains shown)
VH: B1 VH with D54S, A55G
VL: B1 VL with S99D, S100V
modifications: synthon TX on reduced interchain cysteines (sites not given)
B7: CD98 (CL-huAb102)-LB (antibody, human IgG1, kappa, L234A L235A, V domains shown)
VH: B2 VH with Y56N, G57R
VL: B1 VL with N22S, F31Y, G33S, Q61E, I91V, S100Y, Q106G, L110V
modifications: synthon LB on reduced interchain cysteines (sites not given)
B8: CD98 (CL-huAb102)-WD (antibody, human IgG1, kappa, L234A L235A, V domains shown)
VH: B2 VH with Y56N, G57R
VL: B1 VL with N22S, F31Y, G33S, Q61E, I91V, S100Y, Q106G, L110V
modifications: synthon WD on reduced interchain cysteines (sites not given)
B9: CD98 (CL-huAb110)-WD (antibody, human IgG1, kappa, L234A L235A, V domains shown)
VH: B1 VH
VL: B1 VL
modifications: synthon WD on reduced interchain cysteines (sites not given)
B10: CD98 (CL-huAb104)-TX (antibody, human IgG1, kappa, L234A L235A, V domains shown)
VH: B2 VH
VL: B1 VL with N22S, F31Y, G33S, Q61E, I91V, S100Y, Q106G, L110V
modifications: synthon TX on reduced interchain cysteines (sites not given)
B11: CD98 (CL-huAb102)-ZT (antibody, human IgG1, kappa, L234A L235A, V domains shown)
VH: B2 VH with Y56N, G57R
VL: B1 VL with N22S, F31Y, G33S, Q61E, I91V, S100Y, Q106G, L110V
modifications: synthon ZT on reduced interchain cysteines (sites not given)
B12: CD98 (CL-huAb110)-TX (antibody, human IgG1, kappa, L234A L235A, V domains shown)
VH: B1 VH
VL: B1 VL
modifications: synthon TX on reduced interchain cysteines (sites not given)
B13: CD98 (CL-huAb104)-AAD (antibody, human IgG1, kappa, L234A L235A, V domains shown)
VH: B2 VH
VL: B1 VL with N22S, F31Y, G33S, Q61E, I91V, S100Y, Q106G, L110V
modifications: synthon AAD on reduced interchain cysteines (sites not given)
B14: CD98 (CL-huAb104)-TV (antibody, human IgG1, kappa, L234A L235A, V domains shown)
VH: B2 VH
VL: B1 VL with N22S, F31Y, G33S, Q61E, I91V, S100Y, Q106G, L110V
modifications: synthon TV on reduced interchain cysteines (sites not given)
B15: CD98 (CL-huAb102)-AAD (antibody, human IgG1, kappa, L234A L235A, V domains shown)
VH: B2 VH with Y56N, G57R
VL: B1 VL with N22S, F31Y, G33S, Q61E, I91V, S100Y, Q106G, L110V
modifications: synthon AAD on reduced interchain cysteines (sites not given)
B16: CD98 (CL-huAb108)-YY (antibody, human IgG1, kappa, L234A L235A, V domains shown)
VH: B1 VH with D54S, A55G
VL: B1 VL with S99D, S100V
modifications: synthon YY on reduced interchain cysteines (sites not given)
B17: CD98 (CL-huAb104)-WD (antibody, human IgG1, kappa, L234A L235A, V domains shown)
VH: B2 VH
VL: B1 VL with N22S, F31Y, G33S, Q61E, I91V, S100Y, Q106G, L110V
modifications: synthon WD on reduced interchain cysteines (sites not given)
B18: CD98 (CL-huAb102)-TX (antibody, human IgG1, kappa, L234A L235A, V domains shown)
VH: B2 VH with Y56N, G57R
VL: B1 VL with N22S, F31Y, G33S, Q61E, I91V, S100Y, Q106G, L110V
modifications: synthon TX on reduced interchain cysteines (sites not given)
B19: CD98 (CL-huAb104)-AAA (antibody, human IgG1, kappa, L234A L235A, V domains shown)
VH: B2 VH
VL: B1 VL with N22S, F31Y, G33S, Q61E, I91V, S100Y, Q106G, L110V
modifications: synthon AAA on reduced interchain cysteines (sites not given)
B20: CD98 (CL-huAb110)- LB (antibody, human IgG1, kappa, L234A L235A, V domains shown)
VH: B1 VH
VL: B1 VL
modifications: synthon LB on reduced interchain cysteines (sites not given)
B21: CD98 (CL-huAb104)-YY (antibody, human IgG1, kappa, L234A L235A, V domains shown)
VH: B2 VH
VL: B1 VL with N22S, F31Y, G33S, Q61E, I91V, S100Y, Q106G, L110V
modifications: synthon YY on reduced interchain cysteines (sites not given)
B22: CD98 (CL-huAb104)-LB (antibody, human IgG1, kappa, L234A L235A, V domains shown)
VH: B2 VH
VL: B1 VL with N22S, F31Y, G33S, Q61E, I91V, S100Y, Q106G, L110V
modifications: synthon LB on reduced interchain cysteines (sites not given)
B23: CD98 (CL-huAb102)-YY (antibody, human IgG1, kappa, L234A L235A, V domains shown)
VH: B2 VH with Y56N, G57R
VL: B1 VL with N22S, F31Y, G33S, Q61E, I91V, S100Y, Q106G, L110V
modifications: synthon YY on reduced interchain cysteines (sites not given)
B24: CD98 (CL-huAb110)-TV (antibody, human IgG1, kappa, L234A L235A, V domains shown)
VH: B1 VH
VL: B1 VL
modifications: synthon TV on reduced interchain cysteines (sites not given)
B25: CD98 (CL-huAb110)-YY (antibody, human IgG1, kappa, L234A L235A, V domains shown)
VH: B1 VH
VL: B1 VL
modifications: synthon YY on reduced interchain cysteines (sites not given)
B26: CD98 (CL-huAb110)-AAA (antibody, human IgG1, kappa, L234A L235A, V domains shown)
VH: B1 VH
VL: B1 VL
modifications: synthon AAA on reduced interchain cysteines (sites not given)
B27: CD98 (CL-huAb108)-AAA (antibody, human IgG1, kappa, L234A L235A, V domains shown)
VH: B1 VH with D54S, A55G
VL: B1 VL with S99D, S100V
modifications: synthon AAA on reduced interchain cysteines (sites not given)
B28: CD98 (CL-huAb102)-AAA (antibody, human IgG1, kappa, L234A L235A, V domains shown)
VH: B2 VH with Y56N, G57R
VL: B1 VL with N22S, F31Y, G33S, Q61E, I91V, S100Y, Q106G, L110V
modifications: synthon AAA on reduced interchain cysteines (sites not given)
B29: CD98 (CL-huAb108)-TV (antibody, human IgG1, kappa, L234A L235A, V domains shown)
VH: B1 VH with D54S, A55G
VL: B1 VL with S99D, S100V
modifications: synthon TV on reduced interchain cysteines (sites not given)

Biological target: T1, human CD98, endogenously expressed on …
Assay: cell-based or functional assay

Molt4 IC50 [nM] | Binder | % Cell Viability at 50 nM [%]
0.064 | B1 | 0.8
0.042 | B2 | 3.3
0.074 | B3 | 1.5
0.02 | B4 | 1.5
0.091 | B5 | 1.8
0.15 | B6 | 3
0.053 | B7 | 14.8
0.109 | B8 | 14.3
0.226 | B9 | 10.7
0.06 | B10 | 4.3
0.04 | B11 | 3.4
0.14 | B12 | 2.5
0.028 | B13 | 2.5
0.03 | B14 | 1.4
0.024 | B15 | 2.2
0.14 | B16 | 2.9
0.067 | B17 | 16.4
0.05 | B18 | 2.8
0.04 | B19 | 2.2
0.208 | B20 | 1.9
0.03 | B21 | 2.7
0.062 | B22 | 3.5
0.05 | B23 | 3.1
0.09 | B24 | 1
0.13 | B25 | 1.9
0.16 | B26 | 1.9
0.18 | B27 | 2.9
0.05 | B28 | 2.4
0.08 | B29 | 1.1
